This note sets out measurements from patent US20240209106A1 (BEIGENE SWITZERLAND, published 2024).

One assay concerns the target human CD137 ECD-mIgG2a (human). Put plainly: SPR, antibody captured on anti-human Fc surface; analyte taken as human CD137 ECD-mIgG2a.
The target in assay [1] is T1, full-length human CD137 (huCD137) (human, UniProt Q07011 24-255).
T1 construct: On transduced Hut78 cells (Hut78/huCD137), transiently on HEK293 cells, or natively on PBMC/T cells; also called TNFRSF9; 4-1BB
T1 sequence (Q07011 24-255 limits assumed): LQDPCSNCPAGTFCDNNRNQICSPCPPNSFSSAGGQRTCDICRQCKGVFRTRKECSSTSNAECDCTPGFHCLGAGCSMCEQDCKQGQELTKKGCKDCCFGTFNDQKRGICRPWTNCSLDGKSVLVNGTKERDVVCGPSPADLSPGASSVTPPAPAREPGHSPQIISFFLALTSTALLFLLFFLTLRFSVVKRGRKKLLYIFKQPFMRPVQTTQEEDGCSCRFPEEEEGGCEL
Put plainly: flow cytometry on Hut78/huCD137 cells.

Assay [2] addresses T1, full-length human CD137 (huCD137). In words: cell-based or functional assay.

Chain of human CD137 ECD-mIgG2a (human) (chain, as listed by the source limits assumed): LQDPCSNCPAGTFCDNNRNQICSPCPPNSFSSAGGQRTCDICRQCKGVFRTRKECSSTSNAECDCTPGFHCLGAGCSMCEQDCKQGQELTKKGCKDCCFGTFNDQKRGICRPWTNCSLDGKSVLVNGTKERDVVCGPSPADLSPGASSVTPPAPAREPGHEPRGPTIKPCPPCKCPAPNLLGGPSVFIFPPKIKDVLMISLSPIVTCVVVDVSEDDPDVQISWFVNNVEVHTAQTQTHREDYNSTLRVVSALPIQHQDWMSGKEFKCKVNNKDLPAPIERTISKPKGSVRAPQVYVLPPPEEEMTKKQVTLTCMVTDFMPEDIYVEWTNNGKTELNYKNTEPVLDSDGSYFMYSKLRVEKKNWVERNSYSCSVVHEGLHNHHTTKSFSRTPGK

B1: A-CD137×CEA-M1 (bispecific antibody, human IgG1, kappa)
heavy: QVQLVQSGAEVKKPGASVKVSCKASGYIFTSYYLHWVRQAPGQGLEWIGYINPQTGKTSYAQKFQGRVTMTRDTSTSTVYMELSSLRSEDTAVYYCAREYGNYNYPLDYWGQGTLVTVSSASTKGPSVFPLAPSSKSTSGGTAALGCLVKDYFPEPVTVSWNSGALTSGVHTFPAVLQSSGLYSLSSVVTVPSSSLGTQTYICNVNHKPSNTKVDKKVEPKSCDKTHTCPPCPAPPAAGPSVFLFPPKPKDTLMISRTPEVTCVVVDVSHEDPEVKFNWYVDGVEVHNAKTKPREEQYNSTYRVVSVLTVLHQDWLNGKEYKCKVSNKALAAPIEKTISKAKGQPREPQVYTLPPSREEMTKNQVSLTCLVKGFYPSDIAVEWESNGQPENNYKTTPPVLDSDGSFFLYSKLTVDKSRWQQGNVFSCSVMHEALHNHYTQKSLSLSPGKGGGGSEVQLLESGGGLVQPGGSLRLSCAASGFTLSAEDMGWVRQAPGKGLEWVSAILDFGGSTYYAESVKGRFTISRDNAKNTLYLQMSSLRAEDTAVYYCARVVYHAGGGVTFDYWGQGTLVTVSS
light: DIQMTQSPSSLSASVGDRVTITCRASENQYGYLAWYQQKPGKVPKLLIYNYKNLVEGVPSRFSGSGSGTDFTLTISSLQPEDVATYYCQHHLGTPYTFGQGTKVEIKRTVAAPSVFIFPPSDEQLKSGTASVVCLLNNFYPREAKVQWKVDNALQSGNSQESVTEQDSKDSTYSLSSTLTLSKADYEKHKVYACEVTHQGLSSPVTKSFNRGEC
In the assay with human CD137 ECD-mIgG2a, B1 had an equilibrium dissociation constant (Kd) of 586 nM, a koff of 0.00455 s⁻¹ and a kon of 7770 M⁻¹ s⁻¹. The binding result in assay [1] is given as “binds”.

B2: BE-562 (E-muFc-BGA-5623) (bispecific antibody)
heavy: EVQLLESGGGLVQPGGSLRLSCAASGFTVSAEDVGWVRQAPGKGLEWVSAILDKGGSTYYAESVKGRFTISRDNAKNTLYLQMSSLRAEDTAVYYCARIVYHAGGGVTFDTRGQGTQVTVSSEPKSSDKTHTCPPCPAPPAAGPSVFLFPPKPKDTLMISRTPEVTCVVVDVSHEDPEVKFNWYVDGVEVHNAKTKPREEQYNSTYRVVSVLTVLHQDWLNGKEYKCKVSNKALAAPIEKTISKAKGQPREPQVYTLPPSREEMTKNQVSLTCLVKGFYPSDIAVEWESNGQPENNYKTTPPVLDSDGSFFLYSKLTVDKSRWQQGNVFSCSVMHEALHNHYTQKSLSLSPGKGGGGSQVQLVQSGAEVKKPGASVKVSCKASGYIFTSYYLHWVRQAPGQGLEWIGYINPQTGKTSYAQKFQGRVTMTRDTSTSTVYMELSSLRSEDTAVYYCAREYGNYNYPLDYWGQGTLVTVSSASTKGPSVFPLAPSSKSTSGGTAALGCLVKDYFPEPVTVSWNSGALTSGVHTFPAVLQSSGLYSLSSVVTVPSSSLGTQTYICNVNHKPSNTKVDKKVEPKSCD
light: DIQMTQSPSSLSASVGDRVTITCRASENQYGYLAWYQQKPGKVPKLLIYNYKNLVEGVPSRFSGSGSGTDFTLTISSLQPEDVATYYCQHHLGTPYTFGQGTKVEIKRTVAAPSVFIFPPSDEQLKSGTASVVCLLNNFYPREAKVQWKVDNALQSGNSQESVTEQDSKDSTYSLSSTLTLSKADYEKHKVYACEVTHQGLSSPVTKSFNRGEC
Consider B2, for which the “Functional assay EC50 (ug/ml), in vitro CD137 activation (PBMC cytokine release)” value (shortened to “Functional assay EC50 (ug/ml)”) in assay [2] was 4.69 µg/mL.

B3: BE-375 (E-IgG1-BGA-5623) (bispecific antibody)
heavy: not shown
light: DIQMTQSPSSLSASVGDRVTITCRASENQYGYLAWYQQKPGKVPKLLIYNYKNLVEGVPSRFSGSGSGTDFTLTISSLQPEDVATYYCQHHLGTPYTFGQGTKVEIKRTVAAPSVFIFPPSDEQLKSGTASVVCLLNNFYPREAKVQWKVDNALQSGNSQESVTEQDSKDSTYSLSSTLTLSKADYEKHKVYACEVTHQGLSSPVTKSFNRGEC
B3: the “Functional assay EC50 (ug/ml)” value in assay [2] was 1.76 µg/mL.

B4: BE-755 (ZW1+2) (bispecific antibody, human IgG1, L234A L235A)
heavy 1: QVQLVQSGAEVKKPGASVKVSCKASGYIFTSYYLHWVRQAPGQGLEWIGYINPQTGKTSYAQKFQGRVTMTRDTSTSTVYMELSSLRSEDTAVYYCAREYGNYNYPLDYWGQGTLVTVSSASTKGPSVFPLAPSSKSTSGGTAWLGCEVTDYFPEPVTVSWNSGALTSGVHTFPAVLESSGLYSLSSVVTVPSSSLGTQTYICNVNHKPSNTKVDKKVEPKSCDKTHTCPPCPAPEAAGGPSVFLFPPKPKDTLMISRTPEVTCVVVSVSHEDPEVKFNWYVDGVEVHNAKTKPREEQYNSTYRVVSVLTVLHQDWLNGKEYKCKVSNKALPAPIEKTISKAKGQPREPQVYVLPPSRDELTKNQVSLLCLVKGFYPSDIAVEWESNGQPENNYLTWPPVLDSDGSFFLYSKLTVDKSRWQQGNVFSCSVMHEALHNHYTQKSLSLSPGK
light: DIQMTQSPSSLSASVGDRVTITCRASENQYGYLAWYQQKPGKVPKLLIYNYKNLVEGVPSRFSGSGSGTDFTLTISSLQPEDVATYYCQHHLGTPYTFGQGTKVEIKRTVAAPSVAIFPPSDERLKSGTASVVCVLNNFYPREAKVQWKVDNALQSGNSQESVTEQDSKDSTYSLSSRLTLSKADYEKHKVYACEVTHQGLSSPVTKSFNRGEC
heavy 2: not shown
Take B4: the “Functional assay EC50 (ug/ml)” value in assay [2] worked out at 1.16 µg/mL.

B5: BE-942 (ZW 1+1) (bispecific antibody, human IgG1, L234A L235A)
heavy 1: QVQLVQSGAEVKKPGASVKVSCKASGYIFTSYYLHWVRQAPGQGLEWIGYINPQTGKTSYAQKFQGRVTMTRDTSTSTVYMELSSLRSEDTAVYYCAREYGNYNYPLDYWGQGTLVTVSSASTKGPSVFPLAPSSKSTSGGTAWLGCEVTDYFPEPVTVSWNSGALTSGVHTFPAVLESSGLYSLSSVVTVPSSSLGTQTYICNVNHKPSNTKVDKKVEPKSCDKTHTCPPCPAPEAAGGPSVFLFPPKPKDTLMISRTPEVTCVVVSVSHEDPEVKFNWYVDGVEVHNAKTKPREEQYNSTYRVVSVLTVLHQDWLNGKEYKCKVSNKALPAPIEKTISKAKGQPREPQVYVLPPSRDELTKNQVSLLCLVKGFYPSDIAVEWESNGQPENNYLTWPPVLDSDGSFFLYSKLTVDKSRWQQGNVFSCSVMHEALHNHYTQKSLSLSPGK
light: DIQMTQSPSSLSASVGDRVTITCRASENQYGYLAWYQQKPGKVPKLLIYNYKNLVEGVPSRFSGSGSGTDFTLTISSLQPEDVATYYCQHHLGTPYTFGQGTKVEIKRTVAAPSVAIFPPSDERLKSGTASVVCVLNNFYPREAKVQWKVDNALQSGNSQESVTEQDSKDSTYSLSSRLTLSKADYEKHKVYACEVTHQGLSSPVTKSFNRGEC
heavy 2: not shown
As for B5, the “Functional assay EC50 (ug/ml)” value in assay [2] came to 25.1 µg/mL.

B6: BE-244 (A-(G4S)3-BGA-5623) (bispecific antibody, human IgG1, kappa)
heavy: QVQLVQSGAEVKKPGASVKVSCKASGYIFTSYYLHWVRQAPGQGLEWIGYINPQTGKTSYAQKFQGRVTMTRDTSTSTVYMELSSLRSEDTAVYYCAREYGNYNYPLDYWGQGTLVTVSSASTKGPSVFPLAPSSKSTSGGTAALGCLVKDYFPEPVTVSWNSGALTSGVHTFPAVLQSSGLYSLSSVVTVPSSSLGTQTYICNVNHKPSNTKVDKKVEPKSCDKTHTCPPCPAPPAAGPSVFLFPPKPKDTLMISRTPEVTCVVVDVSHEDPEVKFNWYVDGVEVHNAKTKPREEQYNSTYRVVSVLTVLHQDWLNGKEYKCKVSNKALAAPIEKTISKAKGQPREPQVYTLPPSREEMTKNQVSLTCLVKGFYPSDIAVEWESNGQPENNYKTTPPVLDSDGSFFLYSKLTVDKSRWQQGNVFSCSVMHEALHNHYTQKSLSLSPGKGGGGSGGGGSGGGGSEVQLLESGGGLVQPGGSLRLSCAASGFTVSAEDVGWVRQAPGKGLEWVSAILDKGGSTYYAESVKGRFTISRDNAKNTLYLQMSSLRAEDTAVYYCARIVYHAGGGVTFDTRGQGTQVTVSS
light: DIQMTQSPSSLSASVGDRVTITCRASENQYGYLAWYQQKPGKVPKLLIYNYKNLVEGVPSRFSGSGSGTDFTLTISSLQPEDVATYYCQHHLGTPYTFGQGTKVEIKRTVAAPSVFIFPPSDEQLKSGTASVVCLLNNFYPREAKVQWKVDNALQSGNSQESVTEQDSKDSTYSLSSTLTLSKADYEKHKVYACEVTHQGLSSPVTKSFNRGEC
As to B6, the “Functional assay EC50 (ug/ml)” value in assay [2] came out at 0.18 µg/mL.

B7: A-CD137×CEA-M2 (bispecific antibody)
heavy: QVQLVQSGAEVKKPGASVKVSCKASGYIFTSYYLHWVRQAPGQGLEWIGYINPQTGKTSYAQKFQGRVTMTRDTSTSTVYMELSSLRSEDTAVYYCAREYGNYNYPLDYWGQGTLVTVSSASTKGPSVFPLAPSSKSTSGGTAALGCLVKDYFPEPVTVSWNSGALTSGVHTFPAVLQSSGLYSLSSVVTVPSSSLGTQTYICNVNHKPSNTKVDKKVEPKSCDKTHTCPPCPAPPAAGPSVFLFPPKPKDTLMISRTPEVTCVVVDVSHEDPEVKFNWYVDGVEVHNAKTKPREEQYNSTYRVVSVLTVLHQDWLNGKEYKCKVSNKALAAPIEKTISKAKGQPREPQVYTLPPSREEMTKNQVSLTCLVKGFYPSDIAVEWESNGQPENNYKTTPPVLDSDGSFFLYSKLTVDKSRWQQGNVFSCSVMHEALHNHYTQKSLSLSPGKGGGGSEVQLLESGGGLVQPGGSLRLSCAASGRTLSAEDMGWVRQAPGKGLEWVSAILDFGGSTYYAESVKGRFTISRDNAKNTLYLQMSSLRAEDTAVYYCARVVYHAGGGVTFDYWGQGTLVTVSS
light: DIQMTQSPSSLSASVGDRVTITCRASENQYGYLAWYQQKPGKVPKLLIYNYKNLVEGVPSRFSGSGSGTDFTLTISSLQPEDVATYYCQHHLGTPYTFGQGTKVEIKRTVAAPSVFIFPPSDEQLKSGTASVVCLLNNFYPREAKVQWKVDNALQSGNSQESVTEQDSKDSTYSLSSTLTLSKADYEKHKVYACEVTHQGLSSPVTKSFNRGEC
notes: V35M as printed
Consider B7, for which, in the assay with human CD137 ECD-mIgG2a, the dissociation constant (Kd) was 232 nM, the koff is 0.0105 s⁻¹ and the kon was found to be 45200 M⁻¹ s⁻¹. Also, in assay [1], the “EC50 (read off the curve)” value is ~2 µg/mL.

B8: A-CD137×CEA-M4 (bispecific antibody, human IgG1, kappa)
heavy: QVQLVQSGAEVKKPGASVKVSCKASGYIFTSYYLHWVRQAPGQGLEWIGYINPQTGKTSYAQKFQGRVTMTRDTSTSTVYMELSSLRSEDTAVYYCAREYGNYNYPLDYWGQGTLVTVSSASTKGPSVFPLAPSSKSTSGGTAALGCLVKDYFPEPVTVSWNSGALTSGVHTFPAVLQSSGLYSLSSVVTVPSSSLGTQTYICNVNHKPSNTKVDKKVEPKSCDKTHTCPPCPAPPAAGPSVFLFPPKPKDTLMISRTPEVTCVVVDVSHEDPEVKFNWYVDGVEVHNAKTKPREEQYNSTYRVVSVLTVLHQDWLNGKEYKCKVSNKALAAPIEKTISKAKGQPREPQVYTLPPSREEMTKNQVSLTCLVKGFYPSDIAVEWESNGQPENNYKTTPPVLDSDGSFFLYSKLTVDKSRWQQGNVFSCSVMHEALHNHYTQKSLSLSPGKGGGGSEVQLLESGGGLVQPGGSLRLSCAASGRTLSAEDVGWVRQAPGKGLEWVSAILDFGGSTYYAESVKGRFTISRDNAKNTLYLQMSSLRAEDTAVYYCARVVYHAGGGVTFDYWGQGTLVTVSS
light: DIQMTQSPSSLSASVGDRVTITCRASENQYGYLAWYQQKPGKVPKLLIYNYKNLVEGVPSRFSGSGSGTDFTLTISSLQPEDVATYYCQHHLGTPYTFGQGTKVEIKRTVAAPSVFIFPPSDEQLKSGTASVVCLLNNFYPREAKVQWKVDNALQSGNSQESVTEQDSKDSTYSLSSTLTLSKADYEKHKVYACEVTHQGLSSPVTKSFNRGEC
In the assay with human CD137 ECD-mIgG2a, B8 returned a Kd of 194 nM, a koff of 0.0247 s⁻¹ and a kon of 127000 M⁻¹ s⁻¹. In assay [1], the binding result is recorded as “binds”.
